The values below come from US20150152166A1.

Test [1] deals with CMV gp116 epitope AD2 site peptide … (CMV (human cytomegalovirus)). The experiment in a line: kinetic affinity measurement, method not stated; antigen taken as AD2 peptide; same value as r7, table re-sorted by koff.
Test [2] shares this target. The experiment in a line: kinetic affinity measurement, method not stated; antigen taken as CMV gp116 AD2 peptide.
Test [3] addresses GPCMV gB (glycoprotein B of guinea pig CMV strain V545/82) (guinea pig cytomegalovirus). The test is described as follows: cell-based or functional assay.

The term Kd denotes the constant that tells how readily two partners part at equilibrium. The low end stands for tighter binding, the high end for weaker binding. The koff is a measure of how fast the partners let go of each other. A higher koff goes with fast dissociation. Usually kon stands for the rate constant with which the complex forms. A lower kon goes with slower complex formation.

ITC88 control antibody: in test [1], the dissociation constant Kd amounted to 1.51 nM, the dissociation rate constant (koff) was 0.00116 s⁻¹ and the kon worked out at 767000 M⁻¹ s⁻¹. For the same substance, in test [2], the Kd stood at 1.51 nM, the koff was found to be 0.00116 s⁻¹ and the kon worked out at 767000 M⁻¹ s⁻¹. For the same substance, the neutralization of GPCMV V545/82 entry into JH4 cells; highest concentration tested without effect in test [3] is more than 300 ng/mL.
